Measurements reported in article doi:10.1101/2024.02.16.579611.

Molecular target: E. coli RNA polymerase holoenzyme Eσ^70 (His10-PPX-RNAP with σ^70) (E. coli) (UniProt P0A7Z4)
Test: native MS

Substance: KorA (wild type), C-terminally His-tagged (from UniProt P03052) (natural protein)
- stoichiometry N: 2
